B1: sgRNAs 86+89: pair of single guide RNAs, SEQ ID NO: 16 and 17, targeting the K1-5 phage genome with Cas9 (nucleic acid)
guide 1: ACUAAAUGAGGAUUAAAUCAGUUUUAGAGCUAGAAAUAGCAAGUUAAAAUAAGGCUAGUCCGUUAUCAACUUGAAAAAGUGGCACCGAGUCGGUGCUUUUUUU
guide 2: UUACUCUGAUGCACUACAUGGUUUUAGAGCUAGAAAUAGCAAGUUAAAAUAAGGCUAGUCCGUUAUCAACUUGAAAAAGUGGCACCGAGUCGGUGCUUUUUUU
modifications: further chemistry not given here
B2: sgRNAs 1112+1122: pair of single guide RNAs, SEQ ID NO: 18 and 19, targeting the K1-5 phage genome with Cas9 (nucleic acid)
guide 1: UAUAUUAUACCAGAGAGGCGGUUUUAGAGCUAGAAAUAGCAAGUUAAAAUAAGGCUAGUCCGUUAUCAACUUGAAAAAGUGGCACCGAGUCGGUGCUUUUUUU
guide 2: GAAGUUCUAAGGAGAUAACAGUUUUAGAGCUAGAAAUAGCAAGUUAAAAUAAGGCUAGUCCGUUAUCAACUUGAAAAAGUGGCACCGAGUCGGUGCUUUUUUU
modifications: further chemistry not given here

Test system: K1-5 phage
Experiment: Plaquing efficiency of K1-5 phage on K1 E. coli strains with inducible CRISPR-Cas9 and sgRNAs targeting the phage genome
Format: cell-based, K1-5 bacteriophage
Conditions: K1-5 phage plated on strains expressing the sgRNAs, in the absence of homology for repair
Method: K1 E. coli strains were generated for cleaving and recombining at locations specified by either sgRNAs 86+89 or sgRNAs 1112+1122. Cells were maintained with 50 μg/mL kanamycin (for the CRISPR expression vector) and 10 μg/mL gentamicin (for the recombination expression vector). Cells were grown while shaking at 37° C. to OD600˜0.6 and were then subjected to various induction treatments. Cultures were either (1) not induced, (2) induced with 100 ng/mL anhydrotetracycline (aTc) to activate Cas9 expression, (3) induced with 0.2% arabinose to activate lambda red operon expression, or (4) induced with both 100 ng/mL anhydrotetracycline and 0.2% arabinose to activate expression of Cas9 and lambda red genes. Induction was carried out for 2 hours while shaking at 37° C.
K1-5 lysate was then used to infect 200 μL cultures of each bacterial strain/induction condition at 10^6, 10^4, and 10^2 PFU. This infection was given 10 minutes for the phage to adsorb before being added to 3 mL of 0.65% LB top agar. The appropriate inducer was spiked into each top agar tube to maintain induction. The top agar was then spread over an LB agar plate containing the appropriate antibiotics to maintain the CRISPR and recombination expression vectors. The agar plates were incubated in an airtight container for approximately 16 hours at 37° C. […]

Molecule | reduction in plaquing efficiency
B1 | ~1.9×10^6 fold
B2 | 2105 fold

From patent publication US10202610B2, “Recombinant K1-5 bacteriophages and uses thereof” (priority 2017, dated 2019)
